Biological target: fluorescein-labelled divalent stargazin-derived peptide ligand
Experiment: fluorescence polarisation; direct titration: 50 nM fluorescein-labelled stargazin ligand (divalent or monovalent) against increasing concentrations of PDZ domains; apparent KD

Kd: 199 nM
Substance: SAP97 tandem PDZ domains 1 and 2 (SAP97-12), from pET-NO (domain or fragment)

— article PMC6778148
